Ends that are not written are not given here. * marks the point of attachment. Biotin = O=C1N[C@H]2[C@H](CS[C@H]2CCCCC(=O)*)N1

We go through two molecules from patent US20210032351A1 (XDCEXPLORER SHANGHAI, published 2021).

In test [1] the target is T1, human EGFRvIII-hFc protein (human, UniProt P00533 25-645).
T1 construct: extracellular domain; made in HEK293 cells, purified on protein A; also called immunogen A; hFc-tagged EGFRvIII protein; not shown: human IgG Fc fragment (hFc) of the pCpC vector
The experiment in a line: ELISA, coated EGFRvIII-hFc, antibody 100 nM. The method in brief:
(§1)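 Plates coated overnight at 4° C with EGFRvIII-hFc at 1.0 μg/mL, blocked with 1% BSA, then incubated with purified anti-EGFRvIII antibody 2 h at 37° C. Bound antibody detected with HRP secondary (2 h, 37° C) and TMB for 30 min, HCl-stopped, read at A450.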
A general note: ELISA stands for enzyme-linked immunosorbent assay.

For test [2], the target named is T1, human EGFRvIII-hFc protein. Nature of the test: ELISA, coated EGFRvIII-hFc, antibody 0.0001 nM. The essentials: as §1
Test [3] has as its target T2, pep01.
T2 peptide: LEEKKGNYVVTDHGSCK(Biotin)
The experiment in a line: polypeptide dot matrix ELISA.

The target in test [4] is T3, pep21.
T3 peptide: GADSYEMEEDGVRKCKK(Biotin)
The experiment in a line: polypeptide dot matrix ELISA.

Test [5] has as its target T4, pep28 (cysteine pairing not given here).
T4 peptide: EEDGVRKCKKCEGPCRK(Biotin)
Nature of the test: polypeptide dot matrix ELISA.

For test [6], the target named is T5, pep29 (cysteine pairing not given here).
T5 peptide: EDGVRKCKKCEGPCRKK(Biotin)
Nature of the test: polypeptide dot matrix ELISA.

In test [7] the target is T6, pep33 (cysteine pairing not given here).
T6 peptide: RKCKKCEGPCRKVCNGK(Biotin)
Nature of the test: polypeptide dot matrix ELISA.

The target of test [8] is T7, pep04.
T7 peptide: KKGNYVVTDHGSCVRAK(Biotin)
Nature of the test: polypeptide dot matrix ELISA.

Test [9] addresses T8, pep22.
T8 peptide: ADSYEMEEDGVRKCKKK(Biotin)
The experiment in a line: polypeptide dot matrix ELISA.

Test [10] addresses T9, pep19.
T9 peptide: ACGADSYEMEEDGVRKK(Biotin)
The experiment in a line: polypeptide dot matrix ELISA.

Test [11] concerns the target T10, pep26 (cysteine pairing not given here).
T10 peptide: EMEEDGVRKCKKCEGPK(Biotin)
Nature of the test: polypeptide dot matrix ELISA.

For test [12], the target named is T11, pep35 (cysteine pairing not given here).
T11 peptide: CKKCEGPCRKVCNGIGK(Biotin)
Nature of the test: polypeptide dot matrix ELISA.

For test [13], the target named is T12, pep05 (cysteine pairing not given here).
T12 peptide: KGNYVVTDHGSCVRACK(Biotin)
The experiment in a line: polypeptide dot matrix ELISA.

For test [14], the target named is T13, pep06 (cysteine pairing not given here).
T13 peptide: GNYVVTDHGSCVRACGK(Biotin)
Nature of the test: polypeptide dot matrix ELISA.

Test [15] addresses T14, pep16 (cysteine pairing not given here).
T14 peptide: CVRACGADSYEMEEDGK(Biotin)
Nature of the test: polypeptide dot matrix ELISA.

The target of test [16] is T15, pep34 (cysteine pairing not given here).
T15 peptide: KCKKCEGPCRKVCNGIK(Biotin)
The experiment in a line: polypeptide dot matrix ELISA.

The target in test [17] is T16, pep23 (cysteine pairing not given here).
T16 peptide: DSYEMEEDGVRKCKKCK(Biotin)
The experiment in a line: polypeptide dot matrix ELISA.

Test [18] deals with T17, human EGFRvIII-hFc protein (human, UniProt P00533 25-645).
T17 construct: extracellular domain; also called immunogen A; hFc-tagged EGFRvIII protein; not shown: human IgG Fc fragment (hFc) of the pCpC vector
Nature of the test: ELISA, EGFRvIII-hFc coated.

B1: Murine anti-75G7 (antibody, V domains shown)
VH: EVQLQQSGPELVKPGASVKIPCKASGYTFTDYNMDWVKQSHGKSLEWIGDINPNNGDTIYNQKFKGKATLTVDKSSSTAYMELRSLTSEDTAVYYCARGDYDGYYPVYYAMDYWGQGTSVTVSS
VL: ENVLTQSPAIMSASPGEKVTMTCRASSSVSSSYLHWYQQKSGASPKLWIFSTSNLAAGVPARFSGSGSGTSYSLTVSSVEAEDAATYYCQQYSGYPLTFGAGTKLELK
notes: murine hybridoma antibody; also called 75G7C6
Consider B1, for which the OD450 nm amounted to 0.56 in test [1] and 0.07 in test [2]. For the same molecule, the binding result in [3], in test [4], in test [5], in [6], in [7] and in test [8] was “no binding” each time. The binding result in test [9], in test [10], in [11], in test [12], in [13] and in test [14] was “no binding” in each case. In addition, the binding result in test [15], in test [16] and in test [17] was “no binding” in each case.

B2: Chimeric antibody 75G7 (antibody, human IgG1, V domains shown)
VH: EVQLQQSGPELVKPGASVKIPCKASGYTFTDYNMDWVKQSHGKSLEWIGDINPNNGDTIYNQKFKGKATLTVDKSSSTAYMELRSLTSEDTAVYYCARGDYDGYYPVYYAMDYWGQGTSVTVSS
VL: ENVLTQSPAIMSASPGEKVTMTCRASSSVSSSYLHWYQQKSGASPKLWIFSTSNLAAGVPARFSGSGSGTSYSLTVSSVEAEDAATYYCQQYSGYPLTFGAGTKLELK
notes: also called c75G7C6; chimeric antibody c75G7C6
Consider B2, for which, in [18], the EC50 – broadly, the concentration giving half of the maximal effect – was determined as 0.02 nM; the “Maximum OD450 value” came to 3.03 OD450; the “OD450 nm at 0.0001 nM antibody” value came out at 0.07 OD450; the “OD450 nm at 0.001 nM antibody” value is 0.08 OD450. In test [18], the “OD450 nm at 0.01 nM antibody” value was found to be 0.15 OD450, the “OD450 nm at 0.1 nM antibody” value stood at 0.65 OD450, the “OD450 nm at 1 nM antibody” value is 2.69 OD450 and the “OD450 nm at 10 nM antibody” value came to 3.41 OD450. Also, in [18], the “OD450 nm at 100 nM antibody” value was found to be 3.44 OD450.
